Test results from paper PMC7857403.

Biological target: SARS-CoV-2 spike ectodomain trimer (SARS-CoV-2) (UniProt P0DTC2)
Experiment: cryo-EM structure

LCB1 (designed binder)
stoichiometry N (minibinders per spike trimer): 3

LCB3 (designed binder)
stoichiometry N (minibinders per spike trimer): 3
